Laboratory results taken from doi:10.1101/2021.08.28.458030.

Molecular target: T1, Human fumarase (human), P07954
T1 chain: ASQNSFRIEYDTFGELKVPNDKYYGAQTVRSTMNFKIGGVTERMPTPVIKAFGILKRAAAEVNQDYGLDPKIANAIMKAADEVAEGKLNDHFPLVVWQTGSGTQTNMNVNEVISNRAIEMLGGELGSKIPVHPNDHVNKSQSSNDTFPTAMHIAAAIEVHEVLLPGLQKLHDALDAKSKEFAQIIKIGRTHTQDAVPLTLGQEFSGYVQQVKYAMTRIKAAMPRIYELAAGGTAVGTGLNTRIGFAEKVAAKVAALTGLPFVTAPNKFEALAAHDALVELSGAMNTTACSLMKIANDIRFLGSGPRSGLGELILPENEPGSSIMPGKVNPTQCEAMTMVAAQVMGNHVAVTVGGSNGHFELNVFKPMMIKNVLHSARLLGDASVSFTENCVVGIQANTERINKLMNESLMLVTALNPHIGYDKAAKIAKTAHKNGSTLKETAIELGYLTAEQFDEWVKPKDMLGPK
Experiment: crystal structure
Details: remark: other sources report otherwise

B1: Human fumarase, P07954 45-510 (enzyme)
chain: ASQNSFRIEYDTFGELKVPNDKYYGAQTVRSTMNFKIGGVTERMPTPVIKAFGILKRAAAEVNQDYGLDPKIANAIMKAADEVAEGKLNDHFPLVVWQTGSGTQTNMNVNEVISNRAIEMLGGELGSKIPVHPNDHVNKSQSSNDTFPTAMHIAAAIEVHEVLLPGLQKLHDALDAKSKEFAQIIKIGRTHTQDAVPLTLGQEFSGYVQQVKYAMTRIKAAMPRIYELAAGGTAVGTGLNTRIGFAEKVAAKVAALTGLPFVTAPNKFEALAAHDALVELSGAMNTTACSLMKIANDIRFLGSGPRSGLGELILPENEPGSSIMPGKVNPTQCEAMTMVAAQVMGNHVAVTVGGSNGHFELNVFKPMMIKNVLHSARLLGDASVSFTENCVVGIQANTERINKLMNESLMLVTALNPHIGYDKAAKIAKTAHKNGSTLKETAIELGYLTAEQFDEWVKPKDMLGPK
stoichiometry N: 4
